For the series, the target named is T1, EngHD (Engrailed homeodomain, DNA-binding domain) (Drosophila melanogaster) (UniProt P02836).
T1 sequence: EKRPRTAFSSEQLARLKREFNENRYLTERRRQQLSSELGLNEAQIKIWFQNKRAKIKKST
The series is described as follows: FCS. Particulars: ~1 nM Alexa 488-EngHD with unlabeled dsDNA titrated, ionic strength 50 mM (NaCl) unless stated, buffer, pH and temperature not in the material.

Kd data for two substances are collected here from article PMC6987225.

pKd: −log10 of the molar value.

By pKd is commonly meant −log10 of the Kd, conventionally taken in molar units. Read a low pKd as a high Kd. On to “CCATGGTTCTTAACCAAATTGAATTCTCGCCACCGATCGTGTTCGCCCGAAATAAATCTGGCCGAAAAGCCATCAATCTACAATCTAACTGTGCCTCGGTTTATACCTCCAACTGCCGTTCACCGAAAAGGCCGACAGTTTTCCGACAAAGACAAATTCTTAACCAAATTGAATTCTCGCCACCGATCGTGTTCGCCCGAAATAAATCTGGCCGAAAAGCCATCAATCTACAATCTAACTGTGCCTCGGTTTATACCTCCAACTGCCGTTCACCGAAAAGGCCGACAGTTTTCCGACTAATTGTTCTTAACCAAATTGAATTCTCGCCACCGATCGTGTTCGCCCGAAATAAATCTGGCCGAAAAGCCATCAATCTACAATCTAACTGTGCCTCGGTTTATACCTCCAACTGCCGTTCACCGAAAAGGCCGACAGTTTTCCGACTTCTTAACCAAATTGAATTCTCGCCACCGATCGTGTTCGCCCGAAATAAATCTGGCCGAAAAGCCATCAATCTACAATCTAACTGTGCCTCGGTTTATACCTCCAACTGCCGTTCACCGAAAAGGCCGACAGTTTTCCGACAAAGACAAAAAGCTT (double strand) [600 bp TAATTG]”, for which the pKd is 8.66.
The Kd is the equilibrium constant for the complex coming apart. Regarding full beta3-tubulin gene 7219 bp, under “upper estimate, text: sub-nM”, the Kd is less than 0.7 nM.
